Experimental data from patent US20050053993A1, “Uses of an endothelial cell receptor” (priority 2002, published 2005).

What was measured:
HT1080 = test: Tumor cell proliferation, HT1080; type: cell-based, human; conditions: HT1080, 72 hours
Experimental: (§1) Cell Proliferation Assay. The effect of rK5 and rK5 peptides on endothelial cells were assessed using a proliferation assay with 1% BSA and 3 ng/ml bFGF in serum-free media. Relative cell numbers in each well of a 96 well microplate after incubation for 72 hours in the absence or presence of inhibitors were determined by using the AQueous cell proliferation assay (Promega, San Luis Obispo, Calif.). For all other cell lines tested for proliferation, minimal growth media was used (Cao, Y., Ji, R., Davidson, D., Schaller, J., Marti, D., Sohndel, S., McCance, S., O'Reilly, M., Llinas, M., and Folkman, J. Kringle domains of human angiostatin. Characterization of the anti-proliferative activity on endothelial cells. (1996) J. Biol. Chem. 271, 29461-29467). Results are presented as the percent inhibition of control cell (bFGF-induced) proliferation.

HMVEC = HMVEC (Homo sapiens, UniProt P11021); test: VEGF-stimulated HMVEC migration (Boyden chamber); type: cell-based; conditions: read-out: inhibition of endothelial cell migration
HMVEC, sequence (P11021 19-654): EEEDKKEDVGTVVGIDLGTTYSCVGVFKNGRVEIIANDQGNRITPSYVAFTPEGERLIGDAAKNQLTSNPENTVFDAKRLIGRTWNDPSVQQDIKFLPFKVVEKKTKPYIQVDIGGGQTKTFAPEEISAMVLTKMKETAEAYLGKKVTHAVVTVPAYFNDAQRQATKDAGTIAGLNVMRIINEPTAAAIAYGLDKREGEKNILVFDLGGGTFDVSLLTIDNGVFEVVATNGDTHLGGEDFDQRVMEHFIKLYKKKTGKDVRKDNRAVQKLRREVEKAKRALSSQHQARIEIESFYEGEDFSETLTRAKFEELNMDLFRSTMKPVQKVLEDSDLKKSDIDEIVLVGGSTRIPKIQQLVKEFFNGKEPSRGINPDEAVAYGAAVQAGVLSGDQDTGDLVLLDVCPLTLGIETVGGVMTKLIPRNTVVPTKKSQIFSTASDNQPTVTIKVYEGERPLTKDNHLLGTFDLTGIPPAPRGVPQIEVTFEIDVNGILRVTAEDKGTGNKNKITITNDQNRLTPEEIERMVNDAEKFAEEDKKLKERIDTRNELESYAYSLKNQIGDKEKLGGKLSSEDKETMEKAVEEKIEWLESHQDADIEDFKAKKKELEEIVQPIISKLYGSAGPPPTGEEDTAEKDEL
Experimental: Endothelial cell migration assays: The effect of rK5 on endothelial cell migration was determined by two different methods. The first assay was performed in a 96 well plate with a cellulose membrane between the upper and lower chambers. HMVEC were starved of growth factors overnight, labeled with fluorescent calcein AM (50-100 nM), plated into a 96 well migration chamber (2.9×10^4/well) (Neuroprobe, Gaitherburg, Md.), and stimulated to migrate with VEGF (5 ng/mL). After 4 h, migrated cells were measured by fluorescence (Frevert C W, Wong V A, Goodman R B, Goodwin R, Martin T R. Rapid fluorescence-based measurement of neutrophil migration in vitro. J Immunol Methods. 1998 Apr. 1;213(1):41-52). In a second assay for cellular migration, a standard Boyden chamber was used (Polyerini, P. J., Bouck, N. P. & Rastinejad, F. Assay and purification of naturally occurring inhibitor of angiogenesis. Meth. Enzymol. 198, 440-450 (1991)). HMVEC cells were starved overnight in DME containing 0.1% bovine serum albumin (BSA) and harvested by scraping and resuspended in DME with 0.1% BSA at 1.5×10^6 cells per ml. Cells were added to the bottom of a 48-well, Boyden chamber. The chamber was assembled and inverted, and cells were allowed to attach for 2 hours at 37° C. to polycarbonate chemotaxis membranes (5 μm pore size) that had been soaked in 0.1% gelatin overnight and dried. The chamber was re-inverted, test substances, including activators were added to the wells of the upper chamber and the apparatus was incubated for 4 hours at 37° C. Growth factors were used, where indicated, at concentrations determined in preliminary experiments to give equivalent migration responses of about 100 cells migrated/high powered field (400×). […] Membranes were recovered, fixed and stained and the number of cells that had migrated to the upper chamber per 10 high power fields counted. Background migration to DME+0.1% BSA was subtracted and the data reported as the number of cells migrated per 10 high power fields (400×) or, when results from multiple experiments were combined, as the percent inhibition of migration compared to the positive growth factor control (Polyerini, P. J., Bouck, N. P. & Rastinejad, F. Assay and purification of naturally occurring inhibitor of angiogenesis. Meth. Enzymol. 198, 440-450 (1991)).

fibroblasts = test: Fibroblast migration; type: cell-based; conditions: concentrations up to 1000-fold higher than for endothelial cell migration; data not shown
[1] = system: GRP78 siRNA transfected HMVEC cells; test: 3HK5 binding to GRP78 siRNA transfected cells; design: species or system human; conditions: compared to scrambled siRNA transfected cells
Experimental: FIG. 13 is a graph comparing the effect of binding of rK5 to GRP78 siRNA transfected HMVEC cells and scrambled siRNA transfected cells. GRP78 siRNA or scrambled siRNA transfected EaHy cells were grown in 96 well plates. The media was changed and ^3HK5 in PBS was added to the cells. The cells were incubated at room temperature for two hours then washed thoroughly. Cell counts were measure for bound ^3HK5. Data points are the average of triplicate studies.
In selected studies, GRP78 siRNA- or scrambled siRNA-transfected EaHy cells were grown in 96 well plates. The media was changed and ^3HK5 in PBS was added to the cells at various concentrations. The cells were incubated at room temperature for two hours then washed thoroughly. Cell counts were measured for bound ^3HK5 as described above. Data points were calculated from the average of triplicate samples.

Lewis Lung Carcinoma = test: Tumor cell proliferation, Lewis Lung Carcinoma; type: cell-based; conditions: 72 hours
Experimental: as §1

[2] = biological target: T1, recombinant GRP78 ATPase domain (Homo sapiens, UniProt P11021); test: NMR binding to recombinant GRP78 ATPase domain
T1 construct: NMR studies with a recombinant GRP78 ATPase domain
T1 sequence (P11021 19-408): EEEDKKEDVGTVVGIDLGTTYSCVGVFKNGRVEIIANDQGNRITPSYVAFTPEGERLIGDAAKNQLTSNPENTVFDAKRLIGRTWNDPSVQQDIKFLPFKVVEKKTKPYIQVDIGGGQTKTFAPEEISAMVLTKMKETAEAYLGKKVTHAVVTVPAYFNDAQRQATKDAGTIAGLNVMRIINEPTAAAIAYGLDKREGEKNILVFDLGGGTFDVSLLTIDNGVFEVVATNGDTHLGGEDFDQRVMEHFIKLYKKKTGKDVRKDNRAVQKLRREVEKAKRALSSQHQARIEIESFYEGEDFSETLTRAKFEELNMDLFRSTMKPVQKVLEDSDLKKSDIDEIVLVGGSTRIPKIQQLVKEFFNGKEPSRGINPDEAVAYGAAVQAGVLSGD

[3] = system: tumor or primary cell proliferation; test: Tumor or primary cell proliferation; type: cell-based; conditions: at concentrations as high as 100 μM
Experimental: as §1

GRP78 (bovine brain) = biological target: T2, GRP78 (bovine brain) (Bos taurus, UniProt Q0VCX2); test: Ultracentrifugation binding of I125rK5(dog) with GRP78; conditions: 1 nM I125rK5(dog) + 1.5 nM GRP78; peptides 100 nM, rK5 1 nM
T2 construct: from tissue; host or cells: bovine brain
T2 sequence (Q0VCX2 20-655): as the sequence (P11021 19-654) above, with I114V, G626S, D629E, T630A, E632D counted along it
Experimental: Ultra centrifugation with 50,000 MW cut off filters was used with iodinated recombinant dog K5 (I^125rKS(dog)) and GRP78 (bovine brain). The GRP78 and I^125rK5 (dog) were incubated for 1 hour at room temperature. The solution was then transferred to ultracentrifuges and spun at 10,000×g for 2 min. The top chamber contained GRP78 (mw 78,000) and I^125rK5 (dog) that bound. The top and bottom solutions were counted for I125. Column A: 1 nM I^125rK5(dog). Column B: 1 nM I^125rK5 (dog)+1.5 nM GRP78. Column C: 1 nM I^125rK5(dog)+1.5 nM GRP78+100 nM N-terminal K5 peptide, LLPDVETPSEED. Column D: 1 nM I^125rK5(dog)+1.5 nM GRP78±100 nM active site K5 peptide PRKLYDY. Column E: 1 nM I^125rK5(dog)+1.5 nM GRP78+1 nM rK5 (unlabeled). The GRP78 bound to the labeled rK5 causing its retention on the top of the filter.

PC3 = test: Tumor cell proliferation, PC3; type: cell-based; conditions: PC3, 72 hours
Experimental: as §1

D54 = test: Tumor cell proliferation, D54; type: cell-based, human; conditions: D54, 72 hours
Experimental: as §1

IC50 values for cell proliferation (HT1080): >100 µg/mL | IC50 (HMVEC): 250 pM | IC50 values for cell proliferation (Lewis Lung Carcinoma): >100 µg/mL | binding with the ATPase domain of GRP78 (NMR) [2]: direct binding | inhibition of I125rK5(dog) binding to GRP78 (GRP78 (bovine brain)): inhibited | IC50 values for cell proliferation (PC3): >100 µg/mL | IC50 values for cell proliferation (D54): >100 µg/mL
B1: rK5: recombinant kringle 5 fragment of human plasminogen (residues 450-543), expressed in E. coli or yeast (protein)
chain: LLPDVETPSEEDCMFGNGKGYRGKRATTVTGTPCQDWAAQEPHRHSIFTPETNPRAGLEKNYCRNPDGDVGGPWCYTTNPRKLYDYCDVPQCAA
inhibition of migration of fibroblasts (fibroblasts): failed to inhibit | binding to GRP78 siRNA transfected HMVEC cells [1]: very low | inhibition of tumor or primary cell proliferation [3]: did not cause inhibition
